Assays:
[1] = test system: cisplatin-ineligible patients with muscle invasive bladder cancer (MIBC); assay: Phase 1b/2 study (Cohort H): neoadjuvant EV monotherapy followed by RC+PLND, antitumor activity (pCR, pDS, EFS); type: in vivo, human
Procedure: Treatment with enfortumab vedotin monotherapy is evaluated in patients with MIBC. This study enrolls approximately 20 patients with cT2-T4aN0M0 MIBC.
pCR is the primary endpoint and is defined as the absence of viable tumor (pT0N0) in examined tissue from RC+PLND. pCR is assessed by central pathology review after RC+PLND with curative intent. Post-RC restaging is performed via the same radiologic modalities at the first follow-up disease assessment scan (12 weeks after RC+PLND). During the first 2 years on study, follow-up is performed every 12 weeks (±14 days) from RC+PLND until disease progression/recurrence, patient death study closure, or withdrawal of consent, whichever occurs first. After 2 years on study, the frequency of visits including response assessments is reduced to every 24 weeks (±14 days). Tumor imaging should also be performed whenever disease progression is suspected.
Radiographic disease progression precluding a curative intent surgery noted prior to RC+PLND, failure to undergo RC+PLND for patients with residual muscle invasive disease and/or any radiographic disease present, gross residual disease left behind at time of RC+PLND, local or distant recurrence post-RC as assessed radiographically and/or confirmed with biopsy (local pathology review), or death from any cause are considered EFS events. Patients who are found to have EFS events but are still alive are to transition into long-term follow-up.
Tumor tissue samples collected from the patient's diagnostic TURBT within 90 days prior to the first dose of study treatment are sent for central pathology review. Tissue samples from RC+PLND will also be sent for central pathology review of pathologic response assessment. Tumor response is assessed after RC+PLND with curative intent by pathology review analysis. Pathologic staging information includes TNM classification, histology, lymph node counts, and surgical margins.
The pCRR is defined as the proportion of patients having pCR. pCR is defined as the absence of viable tumor (pT0N0) in examined tissue from RC+PLND.
pDSR is defined as the proportion of patients having pDS. pDS is defined as patients with <pT2 (includes pT0, pTis, pTa, pT1) and N0 in examined tissue from RC+PLND.
EFS is defined as the time from the start of study treatment to the first occurrence of any of the following events: • Radiographic disease progression precluding a curative intent surgery prior to RC+PLND • Failure to undergo RC+PLND for participants with residual muscle-invasive disease and/or any radiographic disease present • Gross residual disease left behind at time of RC+PLND (surgeon unable to complete curative intent surgery due to unresectable tumor or newly discovered metastatic disease) • Local or distant recurrence post-RC as assessed by CT or MRI and/or biopsy. If biopsy is not feasible due to participant safety, CT/MRI alone is sufficient • Death from any cause
Patients who refuse surgery but without a post-screening scan are censored at study day 1.
(§1) The methods for this Section 6.2 (Example 2) were as described in Section 6.1 (Example 1). […] Patients received 3 cycles of neoadjuvant EV (1.25 mg/kg) on Days 1 and 8 of every 3-week cycle prior to RC+PLND. The primary endpoint of the study was pathological complete response rate (pCRR; ypT0N0) by central review. Key secondary endpoints included pathological downstaging (pDS) rate (yp T0, Tis, Ta, T1,N0) and safety.

[2] = test system: cisplatin-ineligible patients with muscle invasive bladder cancer (MIBC); assay: Phase 1b/2 study (Cohort H): safety, tolerability, exposure and disposition with neoadjuvant EV monotherapy and RC+PLND; type: in vivo, human
Description: Safety assessments are based on the information collected through the safety surveillance process and will include the data from recorded AEs, including serious adverse events (SAEs), concomitant medications, physical examination findings, cardiac monitoring, and laboratory tests. Safety is monitored over the course of the study by the SMC.
The safety analysis evaluates the type, incidence, severity, seriousness, and relatedness of AEs, and the type, incidence, and severity of laboratory abnormalities. The incidence, duration, and resolution of AEs of special interest (AESIs) are summarized.
The assessment of safety during the course of this study will consist of the surveillance and recording of AEs including SAEs, recording of concomitant medication, and measurements of protocol-specified physical examination findings, cardiac monitoring, and laboratory tests.
AE severity should be graded using the National Cancer Institute's Common Terminology Criteria for Adverse Events (NCI CTCAE), Version 4.03.
An overview of AEs provide a tabulation, by cohort and overall, of the incidence of all AEs, TEAEs, treatment-related AEs, Grade 3 and higher AEs, SAEs, treatment-related SAEs, deaths, and AEs leading to study treatment discontinuation. AEs are defined as treatment emergent if they are newly occurring or worsen following study treatment.
AEs are listed and summarized by Medical Dictionary for Regulatory Activities (MedDRA), preferred term, severity, and relationship to study drug. In the event of multiple occurrences of the same AE with the same preferred term in 1 patient, the AE are counted once as the occurrence. The incidence of AEs are tabulated by preferred term and cohorts. AEs leading to premature discontinuation of study drug are summarized and listed in the same manner.
as §1

[3] = test system: acute myeloid leukemia (AML) at relapse; conditions: administered alone; cited from earlier work
[4] = test system: patients receiving enfortumab vedotin; assay: Reports of severe cutaneous adverse reactions in patients receiving enfortumab vedotin; type: in vivo, human
Description: These reactions occurred predominantly during the first cycle of treatment. AEs reported in these cases included Stevens-Johnson Syndrome (SJS) (5 cases), blister (3 cases), dermatitis bullous (3 cases), symmetrical drug-related intertriginous and flexural exanthema (SDRIFE; 2 cases), and 1 case each of dermatitis exfoliative, exfoliative rash, epidermal necrosis, oropharyngeal blistering, stomatitis, and toxic epidermal necrolysis (TEN).

[5] = test system: urothelial carcinoma subjects; assay: Enfortumab vedotin monotherapy studies of urothelial carcinoma, SAEs of severe cutaneous adverse reactions; type: in vivo, human
[6] = test system: patients with T2 T3bN0M0 MIBC; conditions: cited from earlier work
[7] = test system: cisplatin-ineligible patients with T2 T4N0M0 MIBC; conditions: cited from earlier work
[8] = EFS by investigator assessment, EV Mono N = 22
[9] = Present study, cisplatin ineligible, EV monotherapy x 3 cycles, sample size 22
[10] = by investigator assessment, N = 22
[11] = 2 cycles of 1200 mg prior to RC, 69 patients
[12] = 2 cycles of 1200 mg prior to RC

enfortumab vedotin [EV Mono]
pathological complete response (pCR), patients ([1]; 3 cycles neoadjuvant EV 1.25 mg/kg Days 1 and 8 of 3-week cycle, preliminary analysis of 22 patients): 36%
Number of subjects who have recurrence or died [1, 8]: 5
Subjects who have recurrence or died, figure in parentheses (share of N = 22) [1, 8]: (22.7)
PCR (no viable tumor at surgery), ypT0 and ypTis [1, 9]: 45.5% (ypT0
PCR (no viable tumor at surgery), ypT0 only [1, 9]: 32% (ypT0
pDS (non-muscle invasive disease at surgery), includes pCR [1, 9]: 50% (includes
EFS Rate at 6 months [1, 10]: 88.2%
Event free-survival (EFS), 25th percentile [1, 10]: 6.7, — months
Event free-survival (EFS), median [1, 10]: not reached
Event free-survival (EFS), observed min [1, 10]: 2.60 months
Event free-survival (EFS), observed max ([1]; by investigator assessment, N = 22, + printed after value): ≥ 12.32 months
EFS Rate at 12 months ([1]; by investigator assessment, N = 22, one subject censored at study day 190 due to a data issue): 60.5%
pCRR compared with rates seen with chemotherapy in cisplatin-eligible MIUC patients ([1]; cisplatin-ineligible MIBC patients, neoadjuvant EV): compares favorably
AECI Any infusion related reactions, ≥Grade 3 ([2]; EV Mono N = 22): 0 n
AECI Any ocular disorder: Blurred vision, ≥Grade 3 ([2]; EV Mono N = 22): 0 n
AECI Any ocular disorder: Corneal disorders, Any Grade ([2]; EV Mono N = 22): 0 n
AECI Any ocular disorder: Corneal disorders, ≥Grade 3 ([2]; EV Mono N = 22): 0 n
AECI Any ocular disorder: Dry eye, ≥Grade 3 ([2]; EV Mono N = 22): 0 n
AECI Any peripheral neuropathy, ≥Grade 3 ([2]; EV Mono N = 22): 0 n
Any TEAEs leading to bladder surgery not performed ([2]; EV Mono N = 22): 0 n
EV-related TEAEs leading to bladder surgery not performed ([2]; EV Mono N = 22): 0 n
EV-related TEAEs leading to death ([2]; EV Mono N = 22): 0 n
RC-related TEAEs leading to death ([2]; EV Mono N = 22): 0 n
TEAE (Table 27) Hyperglycaemia ([2]; EV Mono N = 22, listed as EV): 13.6%
TEAE (Table 27) Small intestinal obstruction ([2]; EV Mono N = 22, listed as EV): 9.1%
TEAE (Table 27) Urinary tract infection ([2]; EV Mono N = 22, listed as EV): 9.1%
patients with Grade 3 or higher TEAEs ([2]; EV monotherapy and RC+PLND): 59.1%
tolerability of 3 cycles of neoadjuvant treatment ([2]; cisplatin-ineligible MIBC patients): well-tolerated
Grade 5 AE Acute Kidney Injury: Days from RC + PLND ([2]; in vivo): 62 days
Grade 5 AE Acute Kidney Injury: Days from last dose of EV ([2]; in vivo): 142 days
Grade 5 AE Cardiac Arrest: Days from RC + PLND ([2]; in vivo): 15 days
Grade 5 AE Cardiac Arrest: Days from last dose of EV ([2]; in vivo): 45 days
Grade 5 AE Saddle PE: Days from RC + PLND ([2]; in vivo): 55 days
Grade 5 AE Saddle PE: Days from last dose of EV ([2]; in vivo): 127 days
patients whose grade 5 AEs occurred >30 days after the end of study treatment ([2]; in vivo): 2 pts
patients with grade 5 adverse events while on the study ([2]; in vivo): 3 patients
observed safety profile of neoadjuvant EV monotherapy ([2]; patients in this study): consistent with the known safety profile of EV
Rash maculo-papular leading to EV discontinuation: AE onset after last EV dose ([2]; subject completed Cycle 2, Gr3): ^cSubject completed Cycle 2. AE onset occurred 4 days after last EV dose. (Gr3)

CT-011
response in treating acute myeloid leukemia (AML) at relapse [3]: failed to show response

enfortumab vedotin
severe cutaneous adverse reaction reports: SDRIFE ([4]; 15 patients): 2 cases
severe cutaneous adverse reaction reports: Stevens-Johnson Syndrome (SJS) ([4]; 15 patients): 5 cases
severe cutaneous adverse reaction reports: blister ([4]; 15 patients): 3 cases
severe cutaneous adverse reaction reports: dermatitis bullous ([4]; 15 patients): 3 cases
severe cutaneous adverse reaction reports: dermatitis exfoliative ([4]; 15 patients): 1 case
severe cutaneous adverse reaction reports: epidermal necrosis ([4]; 15 patients): 1 case
severe cutaneous adverse reaction reports: exfoliative rash ([4]; 15 patients): 1 case
severe cutaneous adverse reaction reports: oropharyngeal blistering ([4]; 15 patients): 1 case
severe cutaneous adverse reaction reports: stomatitis ([4]; 15 patients): 1 case
severe cutaneous adverse reaction reports: toxic epidermal necrolysis (TEN) ([4]; 15 patients): 1 case
patients with reports of severe cutaneous adverse reactions ([4]; some had fatal outcomes, predominantly during the first cycle): 15 patients
SAE of severe cutaneous adverse reaction: SJS ([5]; 749 subjects): 0.1%
SAE of severe cutaneous adverse reaction: blister ([5]; 749 subjects): 0.1%
SAE of severe cutaneous adverse reaction: conjunctivitis ([5]; 749 subjects): 0.1%
SAE of severe cutaneous adverse reaction: dermatitis bullous ([5]; 749 subjects): 0.4%
SAE of severe cutaneous adverse reaction: drug eruption ([5]; 749 subjects): 0.4%
SAE of severe cutaneous adverse reaction: stomatitis ([5]; 749 subjects): 0.1%
SAE of severe cutaneous adverse reaction: toxic skin eruption ([5]; 749 subjects): 0.1%
SAEs of severe cutaneous adverse reactions ([5]; 749 subjects): 1.5%
SAEs of severe cutaneous adverse reactions ([5]; of 749 subjects, EV monotherapy studies of urothelial carcinoma): 11 subjects

pembrolizumab
pCR rate ([6]; 3 cycles of 200 mg before RC, among 50 treated patients): 42%
pCR rate in patients with PD L1 positive disease ([6]; 3 cycles of 200 mg before RC): 54.3%
pathologic downstaging rate ([6]; 3 cycles of 200 mg before RC): 65.7%
safety of neoadjuvant administration ([6]; 3 cycles of 200 mg before RC): safely administered
pDS (non-muscle invasive disease at surgery), includes pCR ([6]; PURE-01, Pembrolizumab x 3, sample size 50): 54% (includes
PCR (no viable tumor at surgery) ([6]; PURE-01, cisplatin eligible (n = 42) and ineligible (n = 8), Pembrolizumab x 3, sample size 50): 42%

atezolizumab
pCR, patients [7, 11]: 29%
safety findings [7, 11]: no significant safety findings
pCR, PD-L1-negative cohort [7, 12]: 16%
pCR, patients with PD-L1-positive disease [7, 12]: 40%
patients down staged to non-muscle invasive disease [7, 12]: 39%
PCR (no viable tumor at surgery), ypT0 + ypTis ([7]; ABACUS, cisplatin ineligible, Atezolizumab x 2, sample size 88): 31% (ypT0 +

Reference: patent US20250064956A1, “METHODS FOR TREATING MUSCLE INVASIVE UROTHELIAL CANCER OR MUSCLE INVASIVE BLADDER CANCER WITH ANTIBODY DRUG CONJUGATES (ADC) THAT BIND TO 191P4D12 PROTEINS” (AGENSYS, INC., priority 2022, published 2025)
